These are literature values, as cited in publication PMC11168107.

Like-named read-outs stand apart in the source and are kept apart here.

Series [1] has as its target Bin1 SH3 (Homo sapiens) (UniProt O00499).
For series [2] the target is unchanged. This is another data set of the same source.

UniProt O00499, sequence (O00499 517-593): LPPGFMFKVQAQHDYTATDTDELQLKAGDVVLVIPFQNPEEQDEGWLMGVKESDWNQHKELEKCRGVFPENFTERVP

In general, Kd refers to the free concentration of one partner at which half of the binding sites on the other are occupied at equilibrium, for simple one-to-one binding. Regarding MYC 55-68 (from UniProt P01106), the equilibrium dissociation constant (Kd) in series [1] is 4.2 µM.
Take MYC 1-88 (from UniProt P01106): the equilibrium dissociation constant (Kd) in series [2] is 33 µM.
